# Reference: the RNAGym collection of RNA variant scans (doi:10.1073/pnas.2313332121)
# B1: TPR t1 (parent)
# chain: GACCAAUCUGCCCUCAGAGCUCGAGAACAUCUUCGGAUGCAGAGGAGGCAGGCUUCGGUGGCGCGAUAGCGCCAACGUCCUCAACCUCCAAUGCAUCCCACCACAUGAUGAUGCCUGAAGAGCCUUGGUUUUUUG
# Variants of: B1
# Experiment: polymerase ribozyme fitness, log enrichment relative to wild type (log ratio); higher = more active; in vitro selection for triplet polymerase activity
# Procedure, shortened: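 Only genotypes with ≥10 input reads and ≥1 read per output were kept after Illumina sequencing of input and output libraries. These libraries were PCR-built, transcribed mutants of each subunit of a heterodimeric triplet polymerase ribozyme, each put through one triplicate in vitro selection round with frozen incubation at −7 °C, gel excision of extended constructs, streptavidin-bead capture and RT-PCR. Fitness is a logarithmic ratio of genotype enrichment to wild-type enrichment, from inverse-variance-weighted replicate averages, with the logarithm in base 2.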
row,Variant,polymerase ribozyme fitness (log ratio)
1,C31U A43C,-6.22
2,C28U U112C U131A,-0.425
3,U33G G63C C124A,-4.77
4,U30C G48U C73A C82A,-3.73
5,A29G U132C,-0.924
6,C34A G71U U92A C114G,-7.83
7,C34A U54A,-1.22
8,C34A G35U G48C,-3.95
9,A29G A46U G52U G57U U87G C115G,-4.9
10,C34A C62U,-2.79
11,U33A U129A,-6.13
12,A29U G44A U59A A103C U112C,-5.66
13,C28U U38A C79U C104A C124A U133G,-4.38
14,A29C G57U G120U,-2.96
15,C28U G44U U59A C89G,-4.37
16,C28U U129A,-3.1
17,A29G C88U,-1.2
18,A29G U55G G63A U131C U133G,-2.37
19,C31U G48A C73U U106G,-3.4
20,A29G A74U U109A C114U,-4.26
21,C31U A118U C123U,-4.23
22,U33G C49G G57A C62U A84C C88G G93A G110C,-7.42
23,A29C A41C G61U,-3.33
24,A29G G45U C64U,-2.76

row,Variant,polymerase ribozyme fitness (log ratio)
1,A29U C56G C85A,-4.99
2,A29U G47C C73G U109A,-0.853
3,C31U C56A C73G U106A C124A,0.239
4,C31U C62U,-5.22
5,U32C A50G C79U C88U C114A G122A,-2.69
6,A29G A41U A46C G63C,-5.41
7,C34A A37U A46U A74U G113C,-6.79
8,A29U C94A A111U,-0.272
9,A29U C40U C49A A68G U106A,-4.25
10,A29G A37G U54G G69C,-7.29
11,C34A C70U C79U,-4.29
12,C28U G110U,-1.44
13,C28U G77A U112G U125A,-3.35
14,A29U C98A U109G,-4.46
15,C34A A46U A68U G71C C124G,-7.38
16,U32C C49U A95C U133A,-1.67
17,C34A G113U,-5.39
18,A29G G44U,-2.04
19,C31G G61C,-7.02
20,C34A A46U,-3.37
21,A29G G71U G110A,-2.82
22,A29U G127A,-4.12
23,U30A C56A C70U,-7.2
24,U32G U33C A43U A91U C124U,-5.75

row,Variant,polymerase ribozyme fitness (log ratio)
1,A29U A43G G61U G113A C123A U126A U134C,-3.47
2,C28U G45A C70U G113A A118U U131C,-4.94
3,A29G G71A G120U U132A,-2.06
4,U33A C56G,-4.38
5,C28U G52A C70U,-3.7
6,U33G U87A,-6.14
7,A29C C56A G71C U87A C98A C101U G110C,-6.81
8,U32A G42A U54C U116C G128A,-6.04
9,C31G G44U G52U C62U C85U C115U G117A,-7.35
10,U32C C73A C85G,-3.02
11,A29U G52A G113A,-2.09
12,A29U A50C C98U,-3.99
13,U33G C70G G113U,-6.56
14,C28U U32C G71A,-2.59
15,C34A G128C,-4.73
16,A29U G35A C56U C72U U96A C98G C115G,-7.16
17,U33G C56A C88U,-4.09
18,C34A C97G U125A,-3.42
19,U33C U131A,-4.45
20,A29G C70U G93U,-3
21,U32G A41G C70U C114U,-4.09
22,A29U C62U,-1.3
23,C34A G42U C70G U81A C101A,-8.04
24,U30C G63A,-2.6

row,Variant,polymerase ribozyme fitness (log ratio)
1,C31A C98U,-7.02
2,U33G U55A C72G,-6.25
3,A29G G60C U131A,-1.85
4,C34A C101U C104U U133A,-1.95
5,C31G C98G G110U,-6.25
6,U32C A43U C123A,-1.31
7,A29G C73U,-1.55
8,U32G A37G G113C,-5.08
9,U32A C56G G77U C99A C123U U125G,-5.41
10,U33G A111U A121G U125A,-6.73
11,A29G G63U G120C,-1.96
12,C31A A95U,-5.15
13,C34A C72U A100U,-4.44
14,U33G G47U C72U G120A,-6.26
15,U33G G47C G61C C80A U112A U116C A119U,-6.76
16,U32C U81G,-3.83
17,U32C G48U G69A,-3.8
18,C28U G127U,-2.17
19,C34A C80U,-4.3
20,A29C C62A C124G U129C,-3.09
21,U33G G65U C72G A111C A118U,-6.82
22,C31U C40U,-4.75
23,C34A G69A,-5.23
24,U32C C124G,1.48

row,Variant,polymerase ribozyme fitness (log ratio)
1,C31G G51U C97A C124U,-6.07
2,C31G G48U G65A C86G A100C G120C,-6.59
3,A29G C70G G120A,-2.72
4,U32G C62G G120U,-8.14
5,C31U U54A,-5.03
6,A29G G120U,-0.745
7,A29G G60C,-1.31
8,A29G G60A,-1.42
9,U33G C82U A83C,-6.87
10,A29G G42C G45C C49A U106A,-4.8
11,U32C G69C G128C,-4.73
12,U33A G69U,-0.74
13,U33A C72A C76A,-6.92
14,A29C G36U A43U G44A G69U A121C,-2.34
15,U32C G60U A66G C89G,-6.79
16,A29G G61A C89A,-2.41
17,A29U C62G U106A,-2.35
18,U32A A41U,-5.52
19,A29G A37C A74G A111C,-1.06
20,C34A U116C,-5.3
21,U32A G120C,-3.07
22,U33A G44A G51A G63A A66G A74U A111U,-7.25
23,C28U G57U,-1.3
24,C28U G61A U112C U131A,0.223

row,Variant,polymerase ribozyme fitness (log ratio)
1,C34A G39U C56G,-3.08
2,C34A G58C,-2.18
3,U33A G127C,-4.76
4,A29U U30G G57U G63C C72U G120A,-7.09
5,A29C A84G U87A C104U C124G,-1.28
6,C34A G60A,-3.35
7,C34A G60U,-3.73
8,C31A C72A C104G,-6.29
9,C34A C123A U132C,-2.13
10,A29C C56G C73A A119G,-3.16
11,U33G U96A G110C U116G,-6.31
12,A29G G48U G93C G110U C123U,-4.77
13,A29U G42C A66G A119U,-4.64
14,A29U U78C,-1.79
15,C34A G57C,-2.62
16,A29U A43G U54C G63A G117C,-7.13
17,A29U A46G C88U C97G,-4.71
18,C31U U59C G120U G127C,-5.99
19,A29C U106A,-1.93
20,A29U G71U,-1.99
21,C31G G120C,-5.91
22,C31G G120A,-5.69
23,A29G A41G,-1.22
24,A29G A41U,-1.6

row,Variant,polymerase ribozyme fitness (log ratio)
1,U32C G71C C79G U81C G113A,-3.36
2,U32A C73A C97U,-6.06
3,U32C C62U C73U C85U C98U,-4.16
4,U32A A43G C88U G93A C114G,-5.05
5,A29U U112G U133C,-1.1
6,A29U G61A C82G U116C U125A,-3.67
7,C28U G45C C76A C89G G120C,-5.73
8,U33A A46C G69U,-0.918
9,C31A C40U A50U G60A C101A U106A C115U A119G,-6.82
10,C34A U59A C114A,-5.37
11,U30C C97U,-3.64
12,C31U G69U U78C A118G,-3.16
13,U32A G57U,-4.02
14,C34A C53U C114A U129C,-5.56
15,C34A U55C G60C U129G,-4.03
16,A29U C40U G60C U131A,-2.41
17,U32C G48C,-1.44
18,C31U G36C G61A,-4.05
19,C28U G113C,-3.57
20,C28U G113A,-2
21,C34A C40U C85G,-4.94
22,U32G C53A C64U U109G,-7.34
23,U33A C102G U112A,-6.38
